Laboratory results as given in the Human Domainome abundance scans (Beltran et al. 2025).
± gives the uncertainty stated by the source.

B1: Poly(rC)-binding protein 1, residues 278 to 350; numbered along this chain, Q15365 (parent)
chain: TQTTHELTIPNNLIGCIIGRQGANINEIRQMSGAQIKIANPVEGSSGRQVTITGSAASISLAQYLINARLSSE

Variants of: B1
Test: abundance fitness (aPCA) (normalised: wild type 0, dead -1); higher = more abundant; growth selection in yeast, the domain comes from the species named
Details: Homo sapiens

Row | Variant | abundance fitness
1 | N26G | -0.27 ± 0.038
2 | N26H | -0.193 ± 0.11
3 | N26I | -0.119 ± 0.096
4 | N26K | 0.104 ± 0.048
5 | N26L | -0.291 ± 0.044
6 | N26M | -0.094 ± 0.047
7 | N26P | -0.682 ± 0.092
8 | N26Q | 0.025 ± 0.05
9 | N26R | 0.032 ± 0.028
10 | N26S | -0.003 ± 0.041
11 | N26T | -0.022 ± 0.049
12 | N26V | -0.327 ± 0.042
13 | N26W | -0.34 ± 0.047
14 | E27A | -0.18 ± 0.04
15 | E27C | -0.169 ± 0.065
16 | E27D | -0.099 ± 0.076
17 | E27F | -0.564 ± 0.17
18 | E27G | -0.244 ± 0.034
19 | E27H | -0.09 ± 0.086
20 | E27I | -0.164 ± 0.19
21 | E27K | 0.021 ± 0.065
22 | E27L | -0.225 ± 0.045
23 | E27M | 0.014 ± 0.047
24 | E27N | 0.08 ± 0.11

Row | Variant | abundance fitness
25 | E27P | -0.704 ± 0.13
26 | E27Q | 0.028 ± 0.053
27 | E27R | 0.005 ± 0.031
28 | E27S | -0.035 ± 0.047
29 | E27T | -0.102 ± 0.078
30 | E27V | -0.26 ± 0.035
31 | E27W | -0.136 ± 0.04
32 | E27Y | -0.157 ± 0.12
33 | I28A | -0.735 ± 0.087
34 | I28C | -0.633 ± 0.17
35 | I28D | -0.524 ± 0.2
36 | I28E | -0.895 ± 0.2
37 | I28F | -0.65 ± 0.22
38 | I28G | -0.78 ± 0.083
39 | I28H | -0.956 ± 0.28
40 | I28L | -0.143 ± 0.035
41 | I28M | -0.281 ± 0.049
42 | I28P | -0.939 ± 0.13
43 | I28Q | -0.683 ± 0.2
44 | I28R | -0.825 ± 0.095
45 | I28S | -1.04 ± 0.18
46 | I28V | -0.257 ± 0.038
47 | I28W | -0.408 ± 0.11
48 | I28Y | -0.731 ± 0.29

Row | Variant | abundance fitness
49 | R29A | -0.059 ± 0.033
50 | R29C | -0.205 ± 0.059
51 | R29D | -0.631 ± 0.17
52 | R29E | 0.062 ± 0.058
53 | R29F | -0.271 ± 0.15
54 | R29G | -0.142 ± 0.035
55 | R29H | -0.225 ± 0.14
56 | R29I | -0.081 ± 0.1
57 | R29K | -0.18 ± 0.082
58 | R29L | -0.386 ± 0.05
59 | R29M | -0.022 ± 0.056
60 | R29N | 0.037 ± 0.12
61 | R29P | -0.817 ± 0.19
62 | R29Q | 0.067 ± 0.063
63 | R29S | -0.046 ± 0.05
64 | R29T | -0.085 ± 0.066
65 | R29V | -0.129 ± 0.036
66 | R29W | -1.06 ± 0.16
67 | R29Y | -0.55 ± 0.23
68 | Q30A | 0.001 ± 0.047
69 | Q30C | -0.341 ± 0.13
70 | Q30D | -0.502 ± 0.41
71 | Q30E | 0.013 ± 0.079
72 | Q30F | -0.094 ± 0.16

Row | Variant | abundance fitness
73 | Q30G | -0.168 ± 0.047
74 | Q30K | 0.172 ± 0.092
75 | Q30L | -0.163 ± 0.035
76 | Q30M | -0.137 ± 0.048
77 | Q30N | 0.147 ± 0.42
78 | Q30P | -0.809 ± 0.16
79 | Q30R | 0.099 ± 0.038
80 | Q30S | 0.023 ± 0.064
81 | Q30T | 0.064 ± 0.074
82 | Q30W | -0.334 ± 0.056
83 | M31A | 0.038 ± 0.046
84 | M31C | 0.029 ± 0.088
85 | M31D | -0.337 ± 0.18
86 | M31E | 0.019 ± 0.049
87 | M31F | -0.109 ± 0.24
88 | M31G | -0.347 ± 0.043
89 | M31I | -0.196 ± 0.14
90 | M31K | 0.162 ± 0.061
91 | M31L | -0.009 ± 0.042
92 | M31N | 0.203 ± 0.13
93 | M31P | -0.894 ± 0.17
94 | M31Q | 0.095 ± 0.047
95 | M31R | 0.088 ± 0.032
96 | M31S | -0.171 ± 0.053

Row | Variant | abundance fitness
97 | M31T | -0.051 ± 0.073
98 | M31V | -0.126 ± 0.047
99 | M31W | -0.325 ± 0.056
100 | M31Y | -0.056 ± 0.16
101 | S32A | -0.498 ± 0.074
102 | S32C | -0.201 ± 0.13
103 | S32D | -0.965 ± 0.19
104 | S32F | -1 ± 0.47
105 | S32G | -0.793 ± 0.054
106 | S32I | -0.882 ± 0.25
107 | S32K | -0.8 ± 0.11
108 | S32L | -0.703 ± 0.12
109 | S32M | -0.703 ± 0.087
110 | S32P | -0.91 ± 0.26
111 | S32Q | -0.334 ± 0.14
112 | S32R | -0.85 ± 0.07
113 | S32T | -0.16 ± 0.048
114 | S32V | -0.858 ± 0.086
115 | S32W | -1.14 ± 0.23
116 | G33A | -0.405 ± 0.056
117 | G33C | -0.652 ± 0.13
118 | G33E | -0.541 ± 0.078
119 | G33F | -0.927 ± 0.26
120 | G33H | -0.618 ± 0.24

Row | Variant | abundance fitness
121 | G33I | -0.296 ± 0.24
122 | G33K | -0.362 ± 0.066
123 | G33L | -0.61 ± 0.081
124 | G33M | -0.657 ± 0.11
125 | G33N | -0.439 ± 0.13
126 | G33P | -1.04 ± 0.23
127 | G33Q | -0.204 ± 0.075
128 | G33R | -0.324 ± 0.045
129 | G33S | -0.382 ± 0.071
130 | G33T | -0.575 ± 0.11
131 | G33V | -1.05 ± 0.12
132 | G33W | -0.414 ± 0.096
133 | G33Y | -1.01 ± 0.35
134 | A34C | -0.462 ± 0.18
135 | A34E | -1.24 ± 0.3
136 | A34F | -0.447 ± 0.35
137 | A34G | -0.597 ± 0.079
138 | A34K | -0.943 ± 0.2
139 | A34L | -1.18 ± 0.31
140 | A34P | -0.372 ± 0.15
141 | A34Q | -0.641 ± 0.12
142 | A34R | -0.721 ± 0.085
143 | A34S | -0.122 ± 0.073
144 | A34T | 0.023 ± 0.071

Row | Variant | abundance fitness
145 | A34V | -0.792 ± 0.15
146 | A34W | -0.759 ± 0.12
147 | Q35A | -0.11 ± 0.047
148 | Q35C | -0.15 ± 0.09
149 | Q35D | 0.001 ± 0.083
150 | Q35E | -0.058 ± 0.065
151 | Q35F | -0.233 ± 0.14
152 | Q35G | -0.13 ± 0.039
153 | Q35H | 0.138 ± 0.15
154 | Q35I | -0.104 ± 0.17
155 | Q35L | -0.15 ± 0.039
156 | Q35M | -0.09 ± 0.047
157 | Q35N | 0.088 ± 0.12
158 | Q35P | -0.641 ± 0.099
159 | Q35R | 0.023 ± 0.044
160 | Q35S | -0.012 ± 0.057
161 | Q35T | 0.017 ± 0.072
162 | Q35V | -0.119 ± 0.035
163 | Q35W | -0.21 ± 0.062
164 | Q35Y | -0.231 ± 0.28
165 | I36A | -0.97 ± 0.14
166 | I36C | -0.276 ± 0.2
167 | I36D | -0.852 ± 0.42
